Test results taken from patent publication US20140162945A1 (BEIJING HANMI PHARMACEUTICAL, published 2014).
Bridges are numbered along the chain shown (N, C = ends). Where no end group is shown, it is not given here. [ ]: non-standard residue; d: D form. The star is where a group is joined. Phe(4-NO2) = N[C@@H](Cc1ccc([N+](=O)[O-])cc1)C(=O)O; Phe(4-F) = N[C@@H](Cc1ccc(F)cc1)C(=O)O; Palmitoyl = CCCCCCCCCCCCCCCC(=O)*; Met(O) = CS(=O)CC[C@H](N)C(=O)O; Phg = N[C@H](C(=O)O)c1ccccc1; Nle = CCCC[C@H](N)C(=O)O; Aib = CC(C)(N)C(=O)O

T1: human GIP receptor (human, UniProt P48546 22-466)
T1 sequence (looked up): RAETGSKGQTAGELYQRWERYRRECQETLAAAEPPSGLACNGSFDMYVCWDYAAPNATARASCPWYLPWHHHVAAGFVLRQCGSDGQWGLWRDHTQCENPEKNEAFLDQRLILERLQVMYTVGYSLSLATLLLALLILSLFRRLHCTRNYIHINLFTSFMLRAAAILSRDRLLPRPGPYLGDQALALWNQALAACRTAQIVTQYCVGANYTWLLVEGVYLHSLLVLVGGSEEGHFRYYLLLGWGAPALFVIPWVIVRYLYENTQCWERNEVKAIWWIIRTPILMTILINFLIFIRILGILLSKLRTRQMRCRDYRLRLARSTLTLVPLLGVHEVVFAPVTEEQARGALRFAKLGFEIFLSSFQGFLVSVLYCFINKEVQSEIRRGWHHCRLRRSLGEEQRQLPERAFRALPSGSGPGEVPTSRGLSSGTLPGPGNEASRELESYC


Assays:
human GLP-1 receptor = human GLP-1 receptor (human, UniProt P43220 24-463); experiment: cell-based or functional assay
human GIP receptor = target: T1, human GIP receptor; experiment: cell-based or functional assay

Sequence of human GLP-1 receptor (P43220 24-463): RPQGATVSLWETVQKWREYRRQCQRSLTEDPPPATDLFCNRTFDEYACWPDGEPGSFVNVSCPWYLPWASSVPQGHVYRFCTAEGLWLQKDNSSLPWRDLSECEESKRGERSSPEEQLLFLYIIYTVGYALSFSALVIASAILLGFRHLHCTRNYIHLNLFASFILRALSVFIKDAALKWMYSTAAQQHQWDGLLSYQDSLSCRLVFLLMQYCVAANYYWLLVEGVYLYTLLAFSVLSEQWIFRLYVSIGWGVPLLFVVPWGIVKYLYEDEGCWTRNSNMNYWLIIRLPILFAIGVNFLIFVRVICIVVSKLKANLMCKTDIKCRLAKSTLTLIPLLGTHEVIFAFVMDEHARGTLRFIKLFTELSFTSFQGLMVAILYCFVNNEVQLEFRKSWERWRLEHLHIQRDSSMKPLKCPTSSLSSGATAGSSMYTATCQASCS

Binder | EC50, GLP-1 Receptor cAMP induction (human GLP-1 receptor) | EC50, GIP Receptor cAMP induction (human GIP receptor) | Relative Potency, GIP Receptor (human GIP receptor) | Relative Potency, GLP-1 Receptor (human GLP-1 receptor)
Y[Aib]EGTFTSDYSIYMEKIHQQDFVNWLLAQ-NH2 [Analog 003] | 483 nM | 0.18 nM | 77.7% | –
Y[Aib]EGTFTSDYSIY[Nle]EKEAQQDFVNWLLAQ-NH2 [Analog 020] | 830 nM | 0.27 nM | 51.8% | –
Y[Aib]EGTFISDYSIA[Met(O)]EKIHQQDFVNWLLAQ-NH2 (N-terminus assumed; SMILES CC[C@H](C)[C@H](NC(=O)[C@H](CO)NC(=O)[C@H](Cc1ccc(O)cc1)NC(=O)[C@H](CC(=O)O)NC(=O)[C@H](CO)NC(=O)[C@@H](NC(=O)[C@H](Cc1ccccc1)NC(=O)[C@@H](NC(=O)CNC(=O)[C@H](CCC(=O)O)NC(=O)C(C)(C)NC(=O)[C@@H](N)Cc1ccc(O)cc1)[C@@H](C)O)[C@@H](C)CC)C(=O)N[C@@H](C)C(=O)N[C@@H](CCS(C)=O)C(=O)N[C@@H](CCC(=O)O)C(=O)N[C@@H](CCCCN)C(=O)N[C@H](C(=O)N[C@@H](Cc1c[nH]cn1)C(=O)N[C@@H](CCC(N)=O)C(=O)N[C@@H](CCC(N)=O)C(=O)N[C@@H](CC(=O)O)C(=O)N[C@@H](Cc1ccccc1)C(=O)N[C@H](C(=O)N[C@@H](CC(N)=O)C(=O)N[C@@H](Cc1c[nH]c2ccccc12)C(=O)N[C@@H](CC(C)C)C(=O)N[C@@H](CC(C)C)C(=O)N[C@@H](C)C(=O)N[C@@H](CCC(N)=O)C(N)=O)C(C)C)[C@@H](C)CC) [Analog 006] | > 2000 nM | 6.66 nM | – | –
Y[Aib]EGTFTSDYSIF[Nle]EKIHQQDFVNWLLAQ-NH2 [Analog 011] | 1480 nM | 693 nM | – | –
Y[Aib]EGTFISDYSIA[Nle]EKIHQQDFVNWLLAQ-NH2 [Analog 010] | > 2000 nM | 11.5 nM | – | –
Y[Aib]EGTFTSDYSI[Phe(4-NO2)]MEKIHQQDFVNWLLAQ-NH2 [Analog 016] | 1670 nM | 18.3 nM | – | –
Y[Aib]EGTFTSDYSIAMEKIHQQDFVNWLLAQ-NH2 [Analog 002] | 995 nM | 11.1 nM | – | –
Y[Aib]EGTFTSDYSIYMEKEAVREFIAWLVKGRRRRRR-NH2 (N-terminus assumed; SMILES CC[C@H](C)[C@H](NC(=O)[C@H](Cc1ccccc1)NC(=O)[C@H](CCC(=O)O)NC(=O)[C@H](CCCNC(=N)N)NC(=O)[C@@H](NC(=O)[C@H](C)NC(=O)[C@H](CCC(=O)O)NC(=O)[C@H](CCCCN)NC(=O)[C@H](CCC(=O)O)NC(=O)[C@H](CCSC)NC(=O)[C@H](Cc1ccc(O)cc1)NC(=O)[C@@H](NC(=O)[C@H](CO)NC(=O)[C@H](Cc1ccc(O)cc1)NC(=O)[C@H](CC(=O)O)NC(=O)[C@H](CO)NC(=O)[C@@H](NC(=O)[C@H](Cc1ccccc1)NC(=O)[C@@H](NC(=O)CNC(=O)[C@H](CCC(=O)O)NC(=O)C(C)(C)NC(=O)[C@@H](N)Cc1ccc(O)cc1)[C@@H](C)O)[C@@H](C)O)[C@@H](C)CC)C(C)C)C(=O)N[C@@H](C)C(=O)N[C@@H](Cc1c[nH]c2ccccc12)C(=O)N[C@@H](CC(C)C)C(=O)N[C@H](C(=O)N[C@@H](CCCCN)C(=O)NCC(=O)N[C@@H](CCCNC(=N)N)C(=O)N[C@@H](CCCNC(=N)N)C(=O)N[C@@H](CCCNC(=N)N)C(=O)N[C@@H](CCCNC(=N)N)C(=O)N[C@@H](CCCNC(=N)N)C(=O)N[C@@H](CCCNC(=N)N)C(N)=O)C(C)C) [Analog 075] | 1.41 nM | 1.45 nM | 8.3% | 77.7%
Y[Aib]EGTFTSDYSI[Phg][Nle]EKIHQQDFVNWLLAQ-NH2 [Analog 009] | > 2000 nM | 22.2 nM | – | –
Y[Aib]EGTFTSDYSEYMEKEAVREFIAWLVKGK(Palmitoyl)-NH2 (lactam 12-16; N-terminus assumed; SMILES CCCCCCCCCCCCCCCC(=O)NCCCC[C@H](NC(=O)CNC(=O)[C@H](CCCCN)NC(=O)[C@@H](NC(=O)[C@H](CC(C)C)NC(=O)[C@H](Cc1c[nH]c2ccccc12)NC(=O)[C@H](C)NC(=O)[C@@H](NC(=O)[C@H](Cc1ccccc1)NC(=O)[C@H](CCC(=O)O)NC(=O)[C@H](CCCNC(=N)N)NC(=O)[C@@H](NC(=O)[C@H](C)NC(=O)[C@H](CCC(=O)O)NC(=O)[C@@H]1CCCCNC(=O)CC[C@H](NC(=O)[C@H](CO)NC(=O)[C@H](Cc2ccc(O)cc2)NC(=O)[C@H](CC(=O)O)NC(=O)[C@H](CO)NC(=O)[C@@H](NC(=O)[C@H](Cc2ccccc2)NC(=O)[C@@H](NC(=O)CNC(=O)[C@H](CCC(=O)O)NC(=O)C(C)(C)NC(=O)[C@@H](N)Cc2ccc(O)cc2)[C@@H](C)O)[C@@H](C)O)C(=O)N[C@@H](Cc2ccc(O)cc2)C(=O)N[C@@H](CCSC)C(=O)N[C@@H](CCC(=O)O)C(=O)N1)C(C)C)[C@@H](C)CC)C(C)C)C(N)=O) [Analog 084] | 4.8 nM | 1.34 nM | 8.8% | 22.2%
Y[Aib]EGTFTSDYSI[Phe(4-NO2)][Met(O)]EKIHQQDFVNWLLAQ-NH2 [Analog 005] | > 2000 nM | 76.5 nM | – | –
Y[Aib]EGTFTSDYSIF[Met(O)]EKIHQQDFVNWLLAQ-NH2 [Analog 007] | 836 nM | 19 nM | – | –
Y[Aib]EGTFTSDYSIY[Nle]EKIHQQDFVNWLVRQ-NH2 [Analog 021] | 217 nM | 2.3 nM | 21.7% | –
Y[Aib]EGTFTSDYSIYMEKEAVK(Palmitoyl)EFIAWLVKG-NH2 (N-terminus assumed; SMILES CCCCCCCCCCCCCCCC(=O)NCCCC[C@H](NC(=O)[C@@H](NC(=O)[C@H](C)NC(=O)[C@H](CCC(=O)O)NC(=O)[C@H](CCCCN)NC(=O)[C@H](CCC(=O)O)NC(=O)[C@H](CCSC)NC(=O)[C@H](Cc1ccc(O)cc1)NC(=O)[C@@H](NC(=O)[C@H](CO)NC(=O)[C@H](Cc1ccc(O)cc1)NC(=O)[C@H](CC(=O)O)NC(=O)[C@H](CO)NC(=O)[C@@H](NC(=O)[C@H](Cc1ccccc1)NC(=O)[C@@H](NC(=O)CNC(=O)[C@H](CCC(=O)O)NC(=O)C(C)(C)NC(=O)[C@@H](N)Cc1ccc(O)cc1)[C@@H](C)O)[C@@H](C)O)[C@@H](C)CC)C(C)C)C(=O)N[C@@H](CCC(=O)O)C(=O)N[C@@H](Cc1ccccc1)C(=O)N[C@H](C(=O)N[C@@H](C)C(=O)N[C@@H](Cc1c[nH]c2ccccc12)C(=O)N[C@@H](CC(C)C)C(=O)N[C@H](C(=O)N[C@@H](CCCCN)C(=O)NCC(N)=O)C(C)C)[C@@H](C)CC) [Analog 067] | 7.87 nM | 3.7 nM | 4.6% | 13.9%
Y[Aib]EGTFTSDYSI[Phe(4-NO2)][Nle]EKIHQQDFVNWLLAQ-NH2 [Analog 008] | 1580 nM | 24.2 nM | – | –
Y[Aib]EGTFTSDYSI[Phe(4-F)][Met(O)]EKIHQQDFVNWLLAQ-NH2 [Analog 004] | 926 nM | 14.6 nM | – | –
Y[Aib]EGTFTSDYSIYMEKEAVREFIAWLVKGGPSSGAPPPSK-NH2 (N-terminus assumed; SMILES CC[C@H](C)[C@H](NC(=O)[C@H](Cc1ccccc1)NC(=O)[C@H](CCC(=O)O)NC(=O)[C@H](CCCNC(=N)N)NC(=O)[C@@H](NC(=O)[C@H](C)NC(=O)[C@H](CCC(=O)O)NC(=O)[C@H](CCCCN)NC(=O)[C@H](CCC(=O)O)NC(=O)[C@H](CCSC)NC(=O)[C@H](Cc1ccc(O)cc1)NC(=O)[C@@H](NC(=O)[C@H](CO)NC(=O)[C@H](Cc1ccc(O)cc1)NC(=O)[C@H](CC(=O)O)NC(=O)[C@H](CO)NC(=O)[C@@H](NC(=O)[C@H](Cc1ccccc1)NC(=O)[C@@H](NC(=O)CNC(=O)[C@H](CCC(=O)O)NC(=O)C(C)(C)NC(=O)[C@@H](N)Cc1ccc(O)cc1)[C@@H](C)O)[C@@H](C)O)[C@@H](C)CC)C(C)C)C(=O)N[C@@H](C)C(=O)N[C@@H](Cc1c[nH]c2ccccc12)C(=O)N[C@@H](CC(C)C)C(=O)N[C@H](C(=O)N[C@@H](CCCCN)C(=O)NCC(=O)NCC(=O)N1CCC[C@H]1C(=O)N[C@@H](CO)C(=O)N[C@@H](CO)C(=O)NCC(=O)N[C@@H](C)C(=O)N1CCC[C@H]1C(=O)N1CCC[C@H]1C(=O)N1CCC[C@H]1C(=O)N[C@@H](CO)C(=O)N[C@@H](CCCCN)C(N)=O)C(C)C) [Analog 066] | 2.5 nM | 0.34 nM | 50% | 43.7%
